Laboratory results published in PMC5665613.

Target: Ub-aminomethylcoumarin (Ub-AMC) (UniProt P0CG47)

BAP1N (1-240), wild-type catalytic domain of BAP1, sequence (Q92560 1-240): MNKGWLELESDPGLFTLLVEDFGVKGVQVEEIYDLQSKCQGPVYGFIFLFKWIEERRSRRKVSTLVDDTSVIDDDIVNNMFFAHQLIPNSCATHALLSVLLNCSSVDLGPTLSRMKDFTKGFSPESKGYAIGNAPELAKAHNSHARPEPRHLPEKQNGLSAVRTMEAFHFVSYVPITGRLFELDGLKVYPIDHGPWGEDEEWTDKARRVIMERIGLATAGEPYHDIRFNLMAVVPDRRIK

Km of Ub-AMC hydrolysis by BAP1N (250 pM enzyme, 100 nM-7.5 µM Ub-AMC, 25°C, double-reciprocal plot): 2.9 µM
Substance: BAP1N (1-240), wild-type catalytic domain of BAP1 (from UniProt Q92560 1-240) (domain or fragment)
